Data published in US20030223964A1.

Biological target: FITC-labeled CD4 (UniProt P01730)
Assay: size exclusion HPLC (Biosil 250) after incubation with FITC-labeled CD4; free CD4-FITC elutes at 2.67 minutes

Substance	retention time of the complex on size exclusion HPLC [min]
US4 gp120, purified from CHO cell supernatant	2.17
oligomeric gp140 US4 (o-gp140 US4), purified from CHO cell supernatant	1.9
